The values that follow come from patent US20240279357A1 (THERINI BIO, published 2024).

The target in assay [1] is T1, P2 peptide comprising SEQ ID NO: 31 (human fibrin γ377-395) (human).
T1 construct: Bought (CPC Scientific 920712); also called human P2 peptide
T1 peptide: YSMKKTTMKIIPFNRLTIG
The experiment in a line: SPR (Biacore) single cycle, steady state fit; IgG from HEK supernatant captured, P2 peptide analyte. The procedure: FIG. 18 illustrates the procedure used for the single cycle kinetics analysis. The Biacore T200 […] instrument was used for single cycle kinetics analysis with the control software v2.0.1, and evaluation software V3.0. The anti-human capture chip was used with a running buffer consisting of HBS-P+ buffer (pH 7.4) containing 0.1% BSA at 25° C. a flow rate of 30 μl/min. Neat HEK supernatants were used as ligand and loaded to ˜1674 RU at 10 μl/min. P2 peptide comprising SEQ ID NO: 31 (CPC Scientific 920712, Lot #CS-02-00350) was the analyte for the analysis. […] Regeneration was performed with MgCl₂. Antibodies were diluted in running buffer to a final concentration of 20 μg/ml, based on concentrations assessed by Octet titre. At the start of each cycle, antibodies were loaded onto Fc2, Fc3 and Fc4 of the anti-human capture chip (GE Healthcare, Little Chalfont, UK). IgGs were captured at a flow rate of 10 μl/min to give an immobilization level (RL) of ˜ 1674 RU, the theoretical value to obtain an RMax of ˜50 RU. The surface was then allowed to stabilize. Single cycle kinetic data was obtained with P2 peptide as the analyte at a flow rate of 30 μl/min to minimize any potential mass transport limitations. […] The signal from the reference channel Fc1 (no antibody) was subtracted from that of Fc2, Fc3 and Fc4 to correct for differences in non-specific binding to a reference surface. […] The association phase for the five injections of increasing concentrations of P2 peptide was monitored for 20 seconds each time and a single dissociation phase was measured for 25 seconds following the last injection analyte. Regeneration of the anti-human capture surface was conducted using one injection of 3.8 M magnesium chloride.

Assay [2] deals with T1, P2 peptide comprising SEQ ID NO: 31 …. Nature of the assay: SPR (Biacore) single cycle, steady state affinity; IgG from HEK supernatant captured, γ377-395 peptide analyte.

B1: humanized VH5/Vκ2 antibody (antibody, IgG1, V domains shown)
VH: QVQLVQSGAEVKKPGSSVKVSCKASGYTFTSYWIHWVRQAPGQGLEWIGLIDPSDSYTNYNQKFRGRVTITRDTSTSTAYMELSSLRSEDTAVYYCASSDPTGCWGQGTTVTVSS
VL: DIVMTQAAFSNPVTPGTPASISCRSSKSLLHSSGITYLSWYLQKPGQSPQLLIYQMSNLASGVPDRFSSSGSGTDFTLKISRVEAEDVGVYYCAQNLELPLTFGQGTKLEIK
notes: IgG1; also called VH5/VK2; VH5Vk2
With B1, in assay [1], the Kd came to 130 µM and the “Relative KD” value worked out at 1.47 fold against VH0/VK0. Also, in assay [2], the Kd turned out to be 79 µM and the “Relative KD” value turned out to be 1 fold against VH5/VK2.

B2: humanized VH4/Vκ2 antibody (antibody, IgG1, V domains shown)
VH: QVQLVQSGAEVKKPGSSVKVSCKASGYTFTSYWIHWVRQAPGQGLEWIGLIDPSDSYTNYNQKFRGRVTITVDTSTSTAYMELSSLRSEDTAVYYCASSDPTGCWGQGTTVTVSS
VL: DIVMTQAAFSNPVTPGTPASISCRSSKSLLHSSGITYLSWYLQKPGQSPQLLIYQMSNLASGVPDRFSSSGSGTDFTLKISRVEAEDVGVYYCAQNLELPLTFGQGTKLEIK
notes: IgG1; also called VH4/VK2; VH4Vk2
As for B2, the Kd in assay [1] is 84.5 µM; in assay [2] it was 47 µM. Also, the results for the “Relative KD” value in assay [1] and in assay [2] were 0.8 fold against VH0/VK0 and 1 fold against VH4/VK2, respectively.

B3: humanized VH6/Vκ2 antibody (antibody, IgG1, V domains shown)
VH: QVQLVQSGAEVKKPGSSVKVSCKASGYTFTSYWIHWVRQAPGQGLEWIGLIDPSDSYTNYNQKFQGRVTITRDTSTSTAYMELSSLRSEDTAVYYCASSDPTGCWGQGTTVTVSS
VL: DIVMTQAAFSNPVTPGTPASISCRSSKSLLHSSGITYLSWYLQKPGQSPQLLIYQMSNLASGVPDRFSSSGSGTDFTLKISRVEAEDVGVYYCAQNLELPLTFGQGTKLEIK
notes: Expressed as IgG1; also called VH6/VK2; VH6Vk2
For B3, in assay [1], the Kd amounted to 124 µM and the “Relative KD” value came to 1.4 fold against VH0/VK0.

B4: humanized VH4/Vκ1 antibody (antibody, IgG1, V domains shown)
VH: QVQLVQSGAEVKKPGSSVKVSCKASGYTFTSYWIHWVRQAPGQGLEWIGLIDPSDSYTNYNQKFRGRVTITVDTSTSTAYMELSSLRSEDTAVYYCASSDPTGCWGQGTTVTVSS
VL: DIVMTQAAFSNPITPGTPASISCRSSKSLLHSSGITYLSWYLQKPGQSPQLLIYQMSNLASGVPDRFSSSGSGTDFTLRISRVEAEDVGVYYCAQNLELPLTFGQGTKLEIK
notes: Expressed as IgG1; also called VH4/VK1; VH4Vk1
Regarding B4, in assay [1], binding was characterised by a dissociation constant (Kd) of 105 µM and the “Relative KD” value was found to be 1.18 fold against VH0/VK0.

One may read the Kd as the constant that tells how readily two partners part at equilibrium. A lower Kd goes with tighter binding.
